Results from paper PMC7193609, “DNA replication machinery prevents Rad52-dependent single-strand annealing that leads to gross chromosomal rearrangements at centromeres”.

Biological target: T1, Rad52-6His-3Flag (wild type) (Schizosaccharomyces pombe (fission …, UniProt P36592 1-469))
T1 sequence: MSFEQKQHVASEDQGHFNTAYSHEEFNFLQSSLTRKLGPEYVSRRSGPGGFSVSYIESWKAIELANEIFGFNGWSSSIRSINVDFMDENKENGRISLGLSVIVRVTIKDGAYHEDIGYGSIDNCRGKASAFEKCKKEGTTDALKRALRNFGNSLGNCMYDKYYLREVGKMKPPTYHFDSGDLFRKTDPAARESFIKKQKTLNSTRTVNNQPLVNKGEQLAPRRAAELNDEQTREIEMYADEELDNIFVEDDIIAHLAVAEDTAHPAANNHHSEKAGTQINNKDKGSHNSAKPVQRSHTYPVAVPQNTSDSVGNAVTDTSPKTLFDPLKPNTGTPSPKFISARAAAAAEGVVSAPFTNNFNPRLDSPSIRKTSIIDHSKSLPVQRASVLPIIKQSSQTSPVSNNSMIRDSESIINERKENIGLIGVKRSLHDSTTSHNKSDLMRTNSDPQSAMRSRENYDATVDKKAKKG
Experiment: EMSA; 0-200 nM Rad52, 2 nM DNA; complexes retained in well; EMSA: 32 mM Tris-HCl pH 7.8, 40 mM KCl, 0.8 mM DTT, 0.08 mg/mL BSA, 30 °C, 10 min; 10% native PAGE in 1x TAE
Details: protein: recombinant; tags: C-terminal 6His-3Flag; label: 5'-32P; single strand, 48 nt

## GAAGCATTTATCAGGGTTATTGTCTCATGAGCGGATACATATTTGAAT (ssDNA) [Oligo211]
  binding result: binds
